We go through 7 molecules from US20240417464A1 (published 2024).

Test [1] concerns the target T1, antibody-half molecule A1 with PF1H and PF1L-k0 (PF1H-DA303v2/PF1L-k0). The experiment in a line: SPR (Biacore T200), about 50 RU of half molecule A captured on chip-bound biotinylated antigen peptide, half molecule B at 2.5 mg/mL as analyte (Example 10). The procedure:
(§1) The interaction between the obtained antibody-half molecules was analyzed using Biacore (registered trademark) T200. Biotin CAPture Kit, Series S (GE Healthcare) was used for the measurement, and HBS-EP+10X (GE Healthcare) diluted 1/10th was used as a running buffer. The measurement temperature was 25° C. For the sensor chip, Series S Sensor Chip CAP (GE Healthcare) onto which previously-biotinylated antigen peptides were allowed to interact and thereby immobilized was used. These chips were allowed to capture approximately 50 RU of the antibody-half molecule A of interest and then interact with the antibody-half molecule B of interest diluted with the running buffer at 2.5 mg/mL for 180 seconds at a flow rate of 30 μL/min, and measurement was carried out. The molar binding ratio was calculated based on the following Formula 2. The antibody-half molecule A captured on the chip was washed as described in the instructions attached to the kit, and the chip was regenerated and reused.
(§2) At this time, for the antibody-half molecule to be captured, PF1H (SEQ ID NO: 22), which is the H chain variable region portion of the anti-human IL6 receptor antibody described in WO 2009/041621, was used as the H chain variable region portion, PF1L (SEQ ID NO: 23), which is the L chain variable region portion of the anti-human IL6 receptor antibody described in WO 2009/041621, was used as the L chain variable region portion, and k0 was used as the L chain constant region portion. In addition, for the antibody-half molecules used as analytes, IC17H (SEQ ID NO: 24), which is the anti-KLH antibody described in WO 2015/174439, was used as the H chain variable region, IC17L (SEQ ID NO: 25), which is the anti-KLH antibody described in WO 2015/174439, was used as the L chain variable region, and k0 was used as L chain constant region.

In test [2] the target is T1, antibody-half molecule A1 with PF1H and …. Put plainly: SPR (Biacore T200), about 50 RU of half molecule A captured on chip-bound biotinylated antigen peptide, half molecule B at 2.5 mg/mL as analyte. As for the experimental part: as §1
as §2, with “the antibody-half molecules to be” for “the antibody-half molecule to be”, “used as the L chain” for “used as L chain”
In general terms: In SPR one partner is held on a chip, and binding of the other changes the refractive index at the surface.

The target of test [3] is antibody-half molecule A3 with PF1H and PF1L-k0 (PF1H-DA405v2/PF1L-k0). The test is described as above. As for the experimental part: as §1
Sequence of antibody-half molecule A3 with PF1H and PF1L-k0 (PF1H-DA405v2/PF1L-k0) (heavy, as listed by the source): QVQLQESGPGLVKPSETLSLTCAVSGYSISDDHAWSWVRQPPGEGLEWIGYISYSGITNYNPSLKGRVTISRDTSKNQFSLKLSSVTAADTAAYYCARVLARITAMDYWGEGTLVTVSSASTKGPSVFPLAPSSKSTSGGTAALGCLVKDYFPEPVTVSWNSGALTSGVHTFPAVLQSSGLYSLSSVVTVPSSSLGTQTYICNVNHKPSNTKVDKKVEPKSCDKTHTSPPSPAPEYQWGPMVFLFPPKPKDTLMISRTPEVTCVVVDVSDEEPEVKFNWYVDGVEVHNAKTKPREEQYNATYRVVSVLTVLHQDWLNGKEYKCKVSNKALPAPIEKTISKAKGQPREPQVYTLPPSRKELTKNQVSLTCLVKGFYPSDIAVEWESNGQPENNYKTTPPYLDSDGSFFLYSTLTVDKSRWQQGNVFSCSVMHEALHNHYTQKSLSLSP
as §2, with “the antibody-half molecules to be” for “the antibody-half molecule to be”, “used as the L chain” for “used as L chain”

Test [4] has as its target antibody-half molecule A2 with PF1H and PF1L-k0 (PF1H-DA402v2/PF1L-k0). The test is described as above. The procedure: as §1
as §2, with “the antibody-half molecules to be” for “the antibody-half molecule to be”, “used as the L chain” for “used as L chain”

The target of test [5] is antibody-half molecule A4 with PF1H and PF1L-k0 (PF1H-DA424v2/PF1L-k0). The description is as above. The procedure:
as §1
as §2, with “the antibody-half molecules to be” for “the antibody-half molecule to be”, “used as the L chain” for “used as L chain”

In test [6] the target is antibody-half molecule A6 with PF1H and PF1L-k0 (PF1H-DA303v2.n.n/PF1L-k0). Put plainly: SPR (Biacore T200), about 50 RU of half molecule A captured on chip-bound biotinylated antigen peptide, half molecule B at 2.5 mg/mL as analyte (Example 10). The procedure: as §1, §2
Sequence of antibody-half molecule A6 with PF1H and PF1L-k0 (PF1H-DA303v2.n.n/PF1L-k0) (heavy, as listed by the source): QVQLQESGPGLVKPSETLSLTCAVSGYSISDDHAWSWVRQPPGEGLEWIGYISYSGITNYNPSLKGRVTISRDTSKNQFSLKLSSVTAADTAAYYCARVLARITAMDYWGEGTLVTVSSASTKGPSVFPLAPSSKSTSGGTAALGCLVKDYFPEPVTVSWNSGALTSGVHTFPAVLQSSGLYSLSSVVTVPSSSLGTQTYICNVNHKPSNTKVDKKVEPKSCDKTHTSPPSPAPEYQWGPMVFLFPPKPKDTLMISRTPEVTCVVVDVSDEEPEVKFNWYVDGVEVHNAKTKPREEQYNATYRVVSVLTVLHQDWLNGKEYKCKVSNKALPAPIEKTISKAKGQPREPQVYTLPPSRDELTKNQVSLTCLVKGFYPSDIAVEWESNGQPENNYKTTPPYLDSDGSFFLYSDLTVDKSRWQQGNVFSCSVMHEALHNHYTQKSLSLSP
For test [7], the target named is antibody-half molecule A7 with PF1H and PF1L-k0 (PF1H-DA303v2.n.HATF.B/PF1L-k0). The test is described as above. The procedure: as §1, §2
Sequence of antibody-half molecule A7 with PF1H and PF1L-k0 (PF1H-DA303v2.n.HATF.B/PF1L-k0) (heavy, as listed by the source): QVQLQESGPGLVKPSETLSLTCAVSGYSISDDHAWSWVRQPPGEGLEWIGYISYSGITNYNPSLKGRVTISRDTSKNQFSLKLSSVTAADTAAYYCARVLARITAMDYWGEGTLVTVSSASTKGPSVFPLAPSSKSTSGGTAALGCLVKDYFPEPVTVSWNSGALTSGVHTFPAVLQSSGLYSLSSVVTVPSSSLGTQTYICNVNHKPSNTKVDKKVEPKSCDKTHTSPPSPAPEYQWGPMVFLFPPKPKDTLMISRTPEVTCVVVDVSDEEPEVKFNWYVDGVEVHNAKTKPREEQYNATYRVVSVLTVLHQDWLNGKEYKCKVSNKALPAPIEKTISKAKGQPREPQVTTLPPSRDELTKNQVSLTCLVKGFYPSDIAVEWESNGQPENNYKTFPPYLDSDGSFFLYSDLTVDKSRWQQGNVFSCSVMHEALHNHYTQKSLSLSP
Test [8] has as its target antibody-half molecule A5 with PF1H and PF1L-k0 (PF1H-DA430v2/PF1L-k0). Put plainly: SPR (Biacore T200), about 50 RU of half molecule A captured on chip-bound biotinylated antigen peptide, half molecule B at 2.5 mg/mL as analyte. The procedure:
as §1
as §2, with “the antibody-half molecules to be” for “the antibody-half molecule to be”, “used as the L chain” for “used as L chain”

Numbering of substitutions follows the chain as printed.

T1 sequence (heavy, as listed by the source): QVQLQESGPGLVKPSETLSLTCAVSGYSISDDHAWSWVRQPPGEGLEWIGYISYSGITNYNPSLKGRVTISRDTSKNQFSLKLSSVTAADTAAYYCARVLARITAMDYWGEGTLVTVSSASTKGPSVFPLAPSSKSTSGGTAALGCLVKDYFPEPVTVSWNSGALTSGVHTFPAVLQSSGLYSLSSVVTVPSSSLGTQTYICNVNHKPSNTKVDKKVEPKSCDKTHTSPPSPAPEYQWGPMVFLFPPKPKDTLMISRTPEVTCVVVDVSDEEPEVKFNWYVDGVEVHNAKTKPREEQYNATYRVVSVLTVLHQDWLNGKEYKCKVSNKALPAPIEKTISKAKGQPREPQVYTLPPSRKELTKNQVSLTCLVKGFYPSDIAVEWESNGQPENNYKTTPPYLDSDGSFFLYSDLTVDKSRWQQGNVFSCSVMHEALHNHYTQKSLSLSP
Sequence of antibody-half molecule A2 with PF1H and PF1L-k0 (PF1H-DA402v2/PF1L-k0) (heavy, as listed by the source): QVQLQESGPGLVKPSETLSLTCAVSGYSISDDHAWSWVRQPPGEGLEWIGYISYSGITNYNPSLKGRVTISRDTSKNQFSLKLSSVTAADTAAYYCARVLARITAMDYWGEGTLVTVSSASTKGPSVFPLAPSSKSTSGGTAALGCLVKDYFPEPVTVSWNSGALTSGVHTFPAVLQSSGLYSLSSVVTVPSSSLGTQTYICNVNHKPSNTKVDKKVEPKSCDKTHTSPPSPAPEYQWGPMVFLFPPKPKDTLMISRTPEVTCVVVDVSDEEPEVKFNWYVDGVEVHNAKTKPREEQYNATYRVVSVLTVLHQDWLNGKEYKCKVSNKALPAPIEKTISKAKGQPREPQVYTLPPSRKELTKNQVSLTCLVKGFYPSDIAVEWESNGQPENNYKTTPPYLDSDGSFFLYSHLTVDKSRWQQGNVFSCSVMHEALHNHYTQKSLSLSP
Sequence of antibody-half molecule A4 with PF1H and PF1L-k0 (PF1H-DA424v2/PF1L-k0) (heavy, as listed by the source): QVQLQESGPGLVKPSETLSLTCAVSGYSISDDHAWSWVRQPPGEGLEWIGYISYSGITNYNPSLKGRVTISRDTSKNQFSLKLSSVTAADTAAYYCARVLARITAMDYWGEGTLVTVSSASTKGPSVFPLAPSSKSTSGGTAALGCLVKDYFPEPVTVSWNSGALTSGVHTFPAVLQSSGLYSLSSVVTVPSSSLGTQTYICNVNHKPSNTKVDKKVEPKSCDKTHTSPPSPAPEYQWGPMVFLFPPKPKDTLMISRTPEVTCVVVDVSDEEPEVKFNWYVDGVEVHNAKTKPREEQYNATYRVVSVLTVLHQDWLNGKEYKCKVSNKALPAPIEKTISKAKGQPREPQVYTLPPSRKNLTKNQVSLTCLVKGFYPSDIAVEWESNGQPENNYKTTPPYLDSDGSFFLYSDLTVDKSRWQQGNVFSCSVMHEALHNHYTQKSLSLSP
Sequence of antibody-half molecule A5 with PF1H and PF1L-k0 (PF1H-DA430v2/PF1L-k0) (heavy, as listed by the source): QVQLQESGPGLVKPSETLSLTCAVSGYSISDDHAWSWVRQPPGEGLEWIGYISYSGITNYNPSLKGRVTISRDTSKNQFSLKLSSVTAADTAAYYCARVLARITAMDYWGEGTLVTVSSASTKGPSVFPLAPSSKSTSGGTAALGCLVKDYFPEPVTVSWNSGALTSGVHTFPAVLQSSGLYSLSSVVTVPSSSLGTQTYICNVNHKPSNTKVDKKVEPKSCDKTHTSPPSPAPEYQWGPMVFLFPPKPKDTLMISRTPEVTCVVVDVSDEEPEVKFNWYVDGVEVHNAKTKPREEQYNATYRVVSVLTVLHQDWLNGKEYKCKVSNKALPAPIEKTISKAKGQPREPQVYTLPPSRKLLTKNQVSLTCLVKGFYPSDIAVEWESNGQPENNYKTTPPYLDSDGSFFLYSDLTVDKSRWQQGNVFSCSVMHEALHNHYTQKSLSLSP

B1: antibody-half molecule B1 with IC17H and IC17L-k0 (IC17H-DB220v2/IC17L-k0) (antibody, human IgG1, kappa)
heavy: QVQLQQSGPQLVRPGASVKISCKASGYSFTSYWMHWVNQRPGQGLEWIGMIDPSYSETRLNQKFKDKATLTVDKSSSTAYMQLSSPTSEDSAVYYCALYGNYFDYWGQGTTLTVSSASTKGPSVFPLAPSSKSTSGGTAALGCLVKDYFPEPVTVSWNSGALTSGVHTFPAVLQSSGLYSLSSVVTVPSSSLGTQTYICNVNHKPSNTKVDKKVEPKSCDKTHTSPPSPAPELLGGPSVFLFPPKPKDTLMISRTPEVTCVVVDVSHEEPEVKFNWYVDGVEVHNAKTKPREEQYNSTYRVVSVLTVLHQDWLNGKEYKCKVSNDALPMPIEETISKAKGQPREPQVYTLPPSRDELTKNQVSLTCLVKGFYPSDIAVEWESNGQPENNYKTTPPYLDSDGSFFLYSDLTVDKSRWQQGNVFSCSVMHEALHNHYTQESLSLSP
light: DIQMTQSSSSFSVSLGDRVTITCKASEDIYNRLAWYQQKPGNAPRLLISGATSLETGVPSRFSGSGSGKDYTLSITSLQTEDVATYYCQQYWSTPYTFGGGTKLEVKRTVAAPSVFIFPPSDEQLKSGTASVVCLLNNFYPREAKVQWKVDNALQSGNSQESVTEQDSKDSTYSLSSTLTLSKADYEKHKVYACEVTHQGLSSPVTKSFNRGEC
Turning to B1, the molar binding ratio in test [1] amounted to 0.54 molar ratio; in test [2] it was 0.38 molar ratio.

B2: antibody-half molecule B3 with IC17H and IC17L-k0 (IC17H-DB405v2/IC17L-k0) (antibody, human IgG1, kappa)
heavy: B1 heavy with D408T
light: B1 light
Turning to B2, the molar binding ratio in test [3] came out at 0.54 molar ratio.

B3: antibody-half molecule B2 with IC17H and IC17L-k0 (IC17H-DB402v2/IC17L-k0) (antibody, human IgG1, kappa)
heavy: B1 heavy with D408H
light: B1 light
For B3, the molar binding ratio in test [4] is 0.63 molar ratio.

B4: antibody-half molecule B4 with IC17H and IC17L-k0 (IC17H-DB424v2/IC17L-k0) (antibody, human IgG1, kappa)
heavy: B1 heavy with E356N
light: B1 light
For the molecule B4, the molar binding ratio in test [5] is 0.25 molar ratio.

B5: antibody-half molecule B6 with IC17H and IC17L-k0 (IC17H-DB220v2.n.n/IC17L-k0) (antibody, human IgG1, kappa)
heavy: B1 heavy with E438K
light: B1 light
Turning to B5, the molar binding ratio in test [6] was 0.42 molar ratio.

B6: antibody-half molecule B7 with IC17H and IC17L-k0 (IC17H-DB220v2.n.HATF.A/IC17L-k0) (antibody, human IgG1, kappa)
heavy: B1 heavy with S363H, F404A, E438K
light: B1 light
Take B6: the molar binding ratio in test [7] turned out to be 0.32 molar ratio.

B7: antibody-half molecule B5 with IC17H and IC17L-k0 (IC17H-DB430v2/IC17L-k0) (antibody, human IgG1, kappa)
heavy: B1 heavy with E356L
light: B1 light
Consider B7, for which the molar binding ratio in test [8] stood at 0.27 molar ratio.
